From paper PMC11488288

Legend:
[1] = actinomycin D chase, RT-qPCR; details: glycan lost; control: shYTHDF2 + Flag-YTHDF2 WT
[2] = cycloheximide chase, immunoblot, NP cells
[3] = in vitro ubiquitination with His-OGT and UDP-GlcNAc; details: glycan lost; control: purified Flag-YTHDF2 WT
[4] = HA-Ub, MG132, IP and immunoblot, NP cells
[5] = nuclear/cytoplasmic fractionation and immunofluorescence
[6] = immunoblot, with or without MG132, CQ, BafA1; details: glycan lost; control: untreated
[7] = immunoblot of endogenous YTHDF2, NP cells; details: glycan gained; control: H2O2 alone
[8] = IHC and Western blot of disc tissue; details: glycan gained; control: IDD mice given saline
[9] = glycan lost, control: Flag-YTHDF2 WT
[10] = glycan gained, control: untreated Flag-YTHDF2 WT

B1: YTHDF2: S263A (protein)
parent chain: MSASSLLEQRPKGQGNKVQNGSVHQKDGLNDDDFEPYLSPQARPNNAYTAMSDSYLPSYYSPSIGFSYSLGEAAWSTGGDTAMPYLTSYGQLSNGEPHFLPDAMFGQPGALGSTPFLGQHGFNFFPSGIDFSAWGNNSSQGQSTQSSGYSSNYAYAPSSLGGAMIDGQSAFANETLNKAPGMNTIDQGMAALKLGSTEVASSVPKVVGSAVGSGSITSNIVASSSLPPATIAPPKPASWADIASKPAKQQPKLKTKNGIAGSSLPPPPIKHNMDIGTWDNKGPVAKAPSQALVQNIGQPTQGSPQPVGQQANNSPPVAQASVGQQTQPLPPPPPQPAQLSVQQQAAQPTRWVAPRNRGSGFGHNGVDGNGVGQSQAGSGSTPSEPHPVLEKLRSINNYNPKDFDWNLKHGRVFIIKSYSEDDIHRSIKYNIWCSTEHGNKRLDAAYRSMNGKGPVYLLFSVNGSGHFCGVAEMKSAVDYNTCAGVWSQDKWKGRFDVRWIFVKDVPNSQLRHIRLENNENKPVTNSRDTQEVPLEKAKQVLKIIASYKHTTSIFDDFSHYEKRQEEEESVKKERQGRGK
other: target mRNA stability [1]: decreases | degradation_or_half_life [2, 9]: decreases | other: ubiquitination [3]: increases | other: ubiquitination [4, 9]: increases | localisation_or_trafficking [5, 9]: no change

B2: YTHDF2: OSMI-1 (protein)
parent chain: MSASSLLEQRPKGQGNKVQNGSVHQKDGLNDDDFEPYLSPQARPNNAYTAMSDSYLPSYYSPSIGFSYSLGEAAWSTGGDTAMPYLTSYGQLSNGEPHFLPDAMFGQPGALGSTPFLGQHGFNFFPSGIDFSAWGNNSSQGQSTQSSGYSSNYAYAPSSLGGAMIDGQSAFANETLNKAPGMNTIDQGMAALKLGSTEVASSVPKVVGSAVGSGSITSNIVASSSLPPATIAPPKPASWADIASKPAKQQPKLKTKNGIAGSSLPPPPIKHNMDIGTWDNKGPVAKAPSQALVQNIGQPTQGSPQPVGQQANNSPPVAQASVGQQTQPLPPPPPQPAQLSVQQQAAQPTRWVAPRNRGSGFGHNGVDGNGVGQSQAGSGSTPSEPHPVLEKLRSINNYNPKDFDWNLKHGRVFIIKSYSEDDIHRSIKYNIWCSTEHGNKRLDAAYRSMNGKGPVYLLFSVNGSGHFCGVAEMKSAVDYNTCAGVWSQDKWKGRFDVRWIFVKDVPNSQLRHIRLENNENKPVTNSRDTQEVPLEKAKQVLKIIASYKHTTSIFDDFSHYEKRQEEEESVKKERQGRGK
localisation_or_trafficking ([5]; glycan lost, control: untreated): no change | expression_or_secretion [6]: decreases

B3: YTHDF2: TMG (protein)
parent chain: MSASSLLEQRPKGQGNKVQNGSVHQKDGLNDDDFEPYLSPQARPNNAYTAMSDSYLPSYYSPSIGFSYSLGEAAWSTGGDTAMPYLTSYGQLSNGEPHFLPDAMFGQPGALGSTPFLGQHGFNFFPSGIDFSAWGNNSSQGQSTQSSGYSSNYAYAPSSLGGAMIDGQSAFANETLNKAPGMNTIDQGMAALKLGSTEVASSVPKVVGSAVGSGSITSNIVASSSLPPATIAPPKPASWADIASKPAKQQPKLKTKNGIAGSSLPPPPIKHNMDIGTWDNKGPVAKAPSQALVQNIGQPTQGSPQPVGQQANNSPPVAQASVGQQTQPLPPPPPQPAQLSVQQQAAQPTRWVAPRNRGSGFGHNGVDGNGVGQSQAGSGSTPSEPHPVLEKLRSINNYNPKDFDWNLKHGRVFIIKSYSEDDIHRSIKYNIWCSTEHGNKRLDAAYRSMNGKGPVYLLFSVNGSGHFCGVAEMKSAVDYNTCAGVWSQDKWKGRFDVRWIFVKDVPNSQLRHIRLENNENKPVTNSRDTQEVPLEKAKQVLKIIASYKHTTSIFDDFSHYEKRQEEEESVKKERQGRGK
degradation_or_half_life [2, 10]: increases | expression_or_secretion [7]: increases | other: ubiquitination [4, 10]: changes | expression_or_secretion [8]: increases | localisation_or_trafficking ([5]; glycan gained, control: untreated): no change
